Measurements reported in publication PMC8102066, “Differences in interactions between transmembrane domains tune the activation of metabotropic glutamate receptors” (eLife, 2021).
Blank lines part the entries; values can stand above or below the substance they belong to.

Experiments:
HA-SNAP-mGluR2-TMD (rat) = test: single-molecule pulldown (SiMPull) with photobleaching step counting; HEK 293T cells surface-labelled with BG-LD555, lysed in 1.2% IGEPAL, diluted in 0.1% IGEPAL buffer; HA-SNAP constructs captured by biotinylated anti-HA antibody on NeutrAvidin/PEG slides; TIRF; percent dimerization = two-step bleaching min-max normalised (5% background, 55% for full-length mGluR2); in some experiments saturating ligands (TASP, MNI 137, glutamate, LY34) kept from cell dissociation on
SNAP-mGluR2-TMD-3xTM4_W = test: SiMPull; conditions: SNAP-tagged constructs labeled with LD555; 9 movies; parent: est. 83; read off a plot
SNAP-mGluR2-TMD-I779A [1] = test: SiMPull; conditions: SNAP-tagged constructs labeled with LD555; 6 movies; parent: est. 80; read off a plot
SNAP-mGluR2-TMD-I779A [2] = test: SiMPull; conditions: SNAP-tagged constructs labeled with LD555; 6 movies; parent: est. 80; read off a plot; remark: listed apart in the source
SNAP-mGluR2-TMD-I779W = test: SiMPull; conditions: SNAP-tagged constructs labeled with LD555; 6 movies; parent: est. 80; read off a plot
SNAP-mGluR2-TMD-P778A = test: SiMPull; conditions: SNAP-tagged constructs labeled with LD555; 6 movies; parent: est. 80; read off a plot
[3] = target: SNAP-mGluR2-TMD-P778A-I779A; test: SiMPull; conditions: SNAP-tagged constructs labeled with LD555; 6 movies; parent: est. 80; read off a plot
HA-SNAP-mGluR3-TMD (rat) = test: single-molecule pulldown (SiMPull) with photobleaching step counting; HEK 293T cells surface-labelled with BG-LD555, lysed in 1.2% IGEPAL, diluted in 0.1% IGEPAL buffer; HA-SNAP constructs captured by biotinylated anti-HA antibody on NeutrAvidin/PEG slides; TIRF; percent dimerization = two-step bleaching min-max normalised (5% background, 55% for full-length mGluR2); in some experiments saturating ligands (TASP, MNI 137, glutamate, LY34) kept from cell dissociation on
SNAP-mGluR3-TMD-F690A = test: SiMPull; conditions: SNAP-tagged constructs labeled with LD555; 6 movies; parent: est. 46; read off a plot
SNAP-mGluR3-TMD-G694A = test: SiMPull; conditions: SNAP-tagged constructs labeled with LD555; 6 movies; parent: est. 46; read off a plot
SNAP-mGluR3-TMD-I788A = test: SiMPull; conditions: SNAP-tagged constructs labeled with LD555; 6 movies; parent: est. 50; read off a plot
SNAP-mGluR3-TMD-S686A = test: SiMPull; conditions: SNAP-tagged constructs labeled with LD555; 6 movies; parent: est. 46; read off a plot
SNAP-mGluR3-TMD-3xTM4_W = test: SiMPull; conditions: SNAP-tagged constructs labeled with LD555; 6 movies; parent: est. 46; read off a plot

Sequence of HA-SNAP-mGluR3-TMD (domain or fragment) (P31422 23-879): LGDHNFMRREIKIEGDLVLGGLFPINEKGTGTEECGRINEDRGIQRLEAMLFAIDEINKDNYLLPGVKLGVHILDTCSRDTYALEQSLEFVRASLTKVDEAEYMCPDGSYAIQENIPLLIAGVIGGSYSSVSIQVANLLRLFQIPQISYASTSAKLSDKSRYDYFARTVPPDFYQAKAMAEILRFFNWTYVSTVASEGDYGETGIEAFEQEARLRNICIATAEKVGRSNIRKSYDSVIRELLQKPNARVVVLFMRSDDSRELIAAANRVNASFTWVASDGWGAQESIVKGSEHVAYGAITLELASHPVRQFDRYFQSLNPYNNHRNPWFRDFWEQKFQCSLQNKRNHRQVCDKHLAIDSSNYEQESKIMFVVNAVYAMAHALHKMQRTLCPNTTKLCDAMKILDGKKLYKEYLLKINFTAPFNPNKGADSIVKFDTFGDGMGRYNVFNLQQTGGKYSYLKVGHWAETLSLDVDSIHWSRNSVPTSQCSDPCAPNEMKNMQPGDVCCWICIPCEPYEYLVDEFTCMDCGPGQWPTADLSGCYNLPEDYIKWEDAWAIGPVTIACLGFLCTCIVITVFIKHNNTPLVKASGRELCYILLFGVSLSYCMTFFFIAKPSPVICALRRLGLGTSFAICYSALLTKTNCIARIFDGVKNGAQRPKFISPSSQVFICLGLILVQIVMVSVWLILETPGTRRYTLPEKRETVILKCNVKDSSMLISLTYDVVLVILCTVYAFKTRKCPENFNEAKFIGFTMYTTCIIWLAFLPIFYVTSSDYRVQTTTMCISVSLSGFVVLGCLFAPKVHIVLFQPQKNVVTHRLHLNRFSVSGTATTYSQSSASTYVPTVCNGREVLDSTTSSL
Sequence of HA-SNAP-mGluR2-TMD (domain or fragment) (P31421 19-872): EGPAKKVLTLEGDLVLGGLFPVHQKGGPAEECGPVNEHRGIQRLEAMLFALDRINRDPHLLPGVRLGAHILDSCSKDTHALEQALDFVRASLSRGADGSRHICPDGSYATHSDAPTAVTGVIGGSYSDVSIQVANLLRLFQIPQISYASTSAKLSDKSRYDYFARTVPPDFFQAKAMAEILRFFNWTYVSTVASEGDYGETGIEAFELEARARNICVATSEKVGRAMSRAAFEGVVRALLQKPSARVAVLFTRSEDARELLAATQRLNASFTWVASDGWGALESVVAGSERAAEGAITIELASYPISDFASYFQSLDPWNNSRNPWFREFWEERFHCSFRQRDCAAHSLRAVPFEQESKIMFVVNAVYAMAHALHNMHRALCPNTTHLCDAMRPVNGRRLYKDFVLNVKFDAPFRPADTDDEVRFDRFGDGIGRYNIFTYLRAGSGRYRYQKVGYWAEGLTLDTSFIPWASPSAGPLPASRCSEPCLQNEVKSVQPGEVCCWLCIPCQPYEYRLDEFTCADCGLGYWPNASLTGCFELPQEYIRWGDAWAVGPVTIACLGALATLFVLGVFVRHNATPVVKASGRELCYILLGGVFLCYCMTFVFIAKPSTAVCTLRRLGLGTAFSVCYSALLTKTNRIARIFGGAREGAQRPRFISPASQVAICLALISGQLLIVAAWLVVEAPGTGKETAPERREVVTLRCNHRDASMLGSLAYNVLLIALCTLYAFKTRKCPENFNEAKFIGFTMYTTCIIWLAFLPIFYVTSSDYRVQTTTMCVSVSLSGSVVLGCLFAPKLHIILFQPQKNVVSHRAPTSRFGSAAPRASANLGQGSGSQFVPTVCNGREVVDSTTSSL

- percent of spots bleaching in >3 steps (HA-SNAP-mGluR2-TMD (rat)): 4.5%
- percent of spots bleaching in one step (HA-SNAP-mGluR2-TMD (rat)): 54.1%
- percent of spots bleaching in two steps (HA-SNAP-mGluR2-TMD (rat)): 41.4%
Substance: HA-SNAP-mGluR2-TMD (domain or fragment)

- other: percent dimerization [3]: 57%
Substance: HA-SNAP-mGluR2-TMD P778A; I779A

- other: percent dimerization (SNAP-mGluR3-TMD-F690A): 64%
Substance: HA-SNAP-mGluR3-TMD F690A

- other: percent dimerization (SNAP-mGluR3-TMD-3xTM4_W): 45%
Substance: HA-SNAP-mGluR3-TMD S686W; F690W; G684W

More lines, now with the values behind:

Substance: HA-SNAP-mGluR2-TMD A677W; A681W; A685W
- other: percent dimerization (SNAP-mGluR2-TMD-3xTM4_W): 39%

Substance: HA-SNAP-mGluR2-TMD I779A
- other: percent dimerization (SNAP-mGluR2-TMD-I779A [1]): 57%
- other: percent dimerization (SNAP-mGluR2-TMD-I779A [2]): 57%

Substance: HA-SNAP-mGluR2-TMD I779W
- other: percent dimerization (SNAP-mGluR2-TMD-I779W): 61%

Substance: HA-SNAP-mGluR2-TMD P778A
- other: percent dimerization (SNAP-mGluR2-TMD-P778A): 64%

Substance: HA-SNAP-mGluR3-TMD (domain or fragment)
- percent of spots bleaching in >3 steps (HA-SNAP-mGluR3-TMD (rat)): 2.9%
- percent of spots bleaching in one step (HA-SNAP-mGluR3-TMD (rat)): 69.1%
- percent of spots bleaching in two steps (HA-SNAP-mGluR3-TMD (rat)): 27.9%

Substance: HA-SNAP-mGluR3-TMD G694A
- other: percent dimerization (SNAP-mGluR3-TMD-G694A): 62%

Substance: HA-SNAP-mGluR3-TMD I788A
- other: percent dimerization (SNAP-mGluR3-TMD-I788A): 38%

Substance: HA-SNAP-mGluR3-TMD S686A
- other: percent dimerization (SNAP-mGluR3-TMD-S686A): 72%
